T1: alpha-lactalbumin (α-La) (Bos taurus (bovine milk), UniProt P00711 20-142)
T1 sequence: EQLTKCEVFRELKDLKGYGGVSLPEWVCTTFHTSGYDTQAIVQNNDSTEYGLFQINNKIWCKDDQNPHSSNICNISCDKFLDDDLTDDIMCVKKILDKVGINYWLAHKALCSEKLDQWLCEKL

B1: LA-11 (ssDNA)
DNA: AGCAGCACAGAGGTCAGATGTGGGTGCTGCGAAAGGACGGCATGGGGTCCAAAAGACCCCCCTATGCGTGCTACCGTGAA
B2: LA-9 (ssDNA)
DNA: AGCAGCACAGAGGTCAGATGCTGGGCTGCGAATGACGAATAAATACGCCGTTTCAGACGGCCTATGCGTGCTACCGTGAA
B3: LA-1 (ssDNA)
DNA: AGCAGCACAGAGGTCAGATGGTGCTGCGAACTTAACGCAAGATAGGCTGGACGCGAGTCCCCTATGCGTGCTACCGTGAA
B4: LA-2 (ssDNA)
DNA: AGCAGCACAGAGGTCAGATGGGCTGCGAACAGTTGCATATGGCGCGACTCTAGGCGGGTCCCTATGCGTGCTACCGTGAA
B5: LA-10 (ssDNA)
DNA: AGCAGCACAGAGGTCAGATGTAGTGCTGCGAAGTTGGCTCCGGCGGCGTCAGTCTAGCCGCCTATGCGTGCTACCGTGAA

What follows are binders tested against T1, alpha-lactalbumin (α-La) (assay: fluorescence graphene oxide (GO) assay; 50 mM Tris-HCl, 5 mM KCl, 100 mM NaCl, 1 mM MgCl2, pH 7.4; 100 nM FAM-aptamer, 0-400 ug/ml α-La, 1 h in the dark, then GO 15 min; assay temperature not stated (SELEX at 37 °C)). Conditions: protein: commercial; label: 5'-FAM; 5' stem-loop (predicted).
Binder B1 has a Kd of 175 ± 28.3 nM.
Work on B2 yielded a Kd of 253 ± 32.2 nM.
Binder B3 has a Kd of 92.6 ± 18 nM.
Binder B4 has a Kd of 101 ± 21.3 nM.
B5 showed a Kd of 168 ± 28.9 nM.

Same assay, conditions: protein: commercial; label: 5'-FAM; hairpin
AGCAGCACAGAGGTCAGATGGTGCTGCGAA (structured_DNA) [LA-1t] gave a Kd of 14.1 ± 4.15 nM.
